From patent US20240279290A1
Several values for one entry are separate records, joined by “and”; a condition that tells them apart may be missing. Identical values can stand only once.

Molecular target: human CD40 on primary human B cells or monocyte-derived dendritic cells (human) (UniProt P25942)
Assay: cell-based or functional assay

human CD40 on primary human B cells or monocyte-derived dendritic cells (human), sequence (P25942 21-277 H80K/K81H limits assumed): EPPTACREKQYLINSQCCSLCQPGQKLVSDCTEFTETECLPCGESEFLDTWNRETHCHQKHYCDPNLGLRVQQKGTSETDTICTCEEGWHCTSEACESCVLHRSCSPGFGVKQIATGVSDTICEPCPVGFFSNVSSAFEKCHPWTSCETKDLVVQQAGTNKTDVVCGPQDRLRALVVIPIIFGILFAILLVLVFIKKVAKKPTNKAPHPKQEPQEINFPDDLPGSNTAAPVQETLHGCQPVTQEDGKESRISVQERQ

EC50 [nM], % CD86, human B cells + FAP-CHO, w HSA: 0.88 nM and 0.3 nM | EC50 [nM], % CD86, human B cells + FAP-CHO, w/o HSA: 1.9 nM and 0.51 nM | EC50 [nM], MFI CD86, human B cells + FAP-CHO, w HSA: 0.51 nM and 2.05 nM | EC50 [nM], MFI CD86, human B cells + FAP-CHO, w/o HSA: 1.13 nM and 4.73 nM | Efficacy [MFI at highest dose], MFI CD86, human B cells + FAP-CHO, w HSA: 1530 MFI and 1870 MFI | Efficacy [MFI at highest dose], MFI CD86, human B cells + FAP-CHO, w/o HSA: 1340 MFI and 2060 MFI | Efficacy [MFI at highest dose], MFI CD86, human B cells + WT-CHO (no FAP), w HSA: 1900 MFI and 1470 MFI | Efficacy [MFI at highest dose], MFI CD86, human B cells + WT-CHO (no FAP), w/o HSA: 2050 MFI and 1390 MFI
Substance: anti-CD40 monoclonal antibody corresponding to sequence 21.4.1 of U.S. Pat. No. 7,338,660 B2
